Source: IntAct's records for PubMed 35512704

B1: Mothers against decapentaplegic homolog 4 (Homo sapiens), Q13485 (parent)
chain: MDNMSITNTPTSNDACLSIVHSLMCHRQGGESETFAKRAIESLVKKLKEKKDELDSLITAITTNGAHPSKCVTIQRTLDGRLQVAGRKGFPHVIYARLWRWPDLHKNELKHVKYCQYAFDLKCDSVCVNPYHYERVVSPGIDLSGLTLQSNAPSSMMVKDEYVHDFEGQPSLSTEGHSIQTIQHPPSNRASTETYSTPALLAPSESNATSTANFPNIPVASTSQPASILGGSHSEGLLQIASGPQPGQQQNGFTGQPATYHHNSTTTWTGSRTAPYTPNLPHHQNGHLQHHPPMPPHPGHYWPVHNELAFQPPISNHPAPEYWCSIAYFEMDVQVGETFKVPSSCPIVTVDGYVDPSGGDRFCLGQLSNVHRTEAIERARLHIGKGVQLECKGEGDVWVRCLSDHAVFVQSYYLDREAGRAPGDAVHKIYPSAYIKVFDLRQCHRQMQQQAATAQAAAAAQAAAVAGNIPGPGSVGGIAPAISLSAAAGIGVDDLRRLCILRMSFVKGWGPDYPRQSIKETPCWIEIHLHRALQLLDEVLHTMPIADPQPLD
partner: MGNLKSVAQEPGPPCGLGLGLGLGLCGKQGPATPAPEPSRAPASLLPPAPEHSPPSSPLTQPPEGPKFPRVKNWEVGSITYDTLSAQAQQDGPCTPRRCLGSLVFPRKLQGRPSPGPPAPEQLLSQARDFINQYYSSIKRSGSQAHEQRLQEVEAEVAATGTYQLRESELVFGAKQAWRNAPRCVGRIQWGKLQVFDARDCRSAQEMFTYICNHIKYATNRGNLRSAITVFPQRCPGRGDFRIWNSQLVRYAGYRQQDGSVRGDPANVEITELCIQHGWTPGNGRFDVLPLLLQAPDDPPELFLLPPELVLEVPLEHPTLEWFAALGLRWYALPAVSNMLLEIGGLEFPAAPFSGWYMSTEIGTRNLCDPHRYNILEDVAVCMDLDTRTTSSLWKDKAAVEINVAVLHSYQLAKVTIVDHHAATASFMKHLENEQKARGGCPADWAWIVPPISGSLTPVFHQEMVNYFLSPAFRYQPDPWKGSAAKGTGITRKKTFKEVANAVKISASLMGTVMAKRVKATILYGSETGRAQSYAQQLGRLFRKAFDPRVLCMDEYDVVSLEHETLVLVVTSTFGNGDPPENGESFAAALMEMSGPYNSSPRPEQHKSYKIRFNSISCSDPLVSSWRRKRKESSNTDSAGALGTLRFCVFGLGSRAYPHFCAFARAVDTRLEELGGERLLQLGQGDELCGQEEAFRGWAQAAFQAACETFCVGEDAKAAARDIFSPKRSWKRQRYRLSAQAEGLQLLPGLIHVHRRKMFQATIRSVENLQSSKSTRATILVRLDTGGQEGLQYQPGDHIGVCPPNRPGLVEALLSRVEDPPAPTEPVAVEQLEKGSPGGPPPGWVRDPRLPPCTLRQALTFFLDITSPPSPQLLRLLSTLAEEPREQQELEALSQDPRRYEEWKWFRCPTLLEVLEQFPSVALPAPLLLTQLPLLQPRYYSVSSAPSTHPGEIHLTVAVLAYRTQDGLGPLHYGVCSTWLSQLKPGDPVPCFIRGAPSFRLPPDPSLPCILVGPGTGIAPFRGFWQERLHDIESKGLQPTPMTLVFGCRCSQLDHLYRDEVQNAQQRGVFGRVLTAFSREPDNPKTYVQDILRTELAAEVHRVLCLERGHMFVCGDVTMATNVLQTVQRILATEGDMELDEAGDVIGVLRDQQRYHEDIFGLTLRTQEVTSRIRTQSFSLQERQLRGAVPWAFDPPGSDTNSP
B2: Mothers against decapentaplegic homolog 4 (Homo sapiens), Q13485 (parent)
chain: B1 chain
partner: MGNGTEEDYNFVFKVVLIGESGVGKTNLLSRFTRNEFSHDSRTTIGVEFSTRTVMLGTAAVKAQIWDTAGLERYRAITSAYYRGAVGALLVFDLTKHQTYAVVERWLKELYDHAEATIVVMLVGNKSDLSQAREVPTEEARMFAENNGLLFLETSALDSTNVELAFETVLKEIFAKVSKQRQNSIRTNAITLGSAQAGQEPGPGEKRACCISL
B3: Mothers against decapentaplegic homolog 4 (Homo sapiens), Q13485 (parent)
chain: B1 chain
partner: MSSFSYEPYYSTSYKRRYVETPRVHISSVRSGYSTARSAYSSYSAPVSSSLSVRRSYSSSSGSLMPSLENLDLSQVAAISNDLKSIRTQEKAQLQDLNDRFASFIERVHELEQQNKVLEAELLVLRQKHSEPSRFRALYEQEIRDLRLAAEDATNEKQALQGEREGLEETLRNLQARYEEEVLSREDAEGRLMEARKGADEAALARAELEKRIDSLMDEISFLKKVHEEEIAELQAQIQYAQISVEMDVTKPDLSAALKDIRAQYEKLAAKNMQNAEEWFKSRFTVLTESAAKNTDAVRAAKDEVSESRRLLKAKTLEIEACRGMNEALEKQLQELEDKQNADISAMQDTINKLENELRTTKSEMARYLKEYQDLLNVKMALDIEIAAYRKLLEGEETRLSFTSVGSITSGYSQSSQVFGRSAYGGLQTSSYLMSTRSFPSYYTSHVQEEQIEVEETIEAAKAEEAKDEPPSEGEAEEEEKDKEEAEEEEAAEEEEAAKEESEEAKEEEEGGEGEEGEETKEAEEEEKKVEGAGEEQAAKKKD
B4: Mothers against decapentaplegic homolog 4 (Homo sapiens), Q13485 (parent)
chain: B1 chain
partner: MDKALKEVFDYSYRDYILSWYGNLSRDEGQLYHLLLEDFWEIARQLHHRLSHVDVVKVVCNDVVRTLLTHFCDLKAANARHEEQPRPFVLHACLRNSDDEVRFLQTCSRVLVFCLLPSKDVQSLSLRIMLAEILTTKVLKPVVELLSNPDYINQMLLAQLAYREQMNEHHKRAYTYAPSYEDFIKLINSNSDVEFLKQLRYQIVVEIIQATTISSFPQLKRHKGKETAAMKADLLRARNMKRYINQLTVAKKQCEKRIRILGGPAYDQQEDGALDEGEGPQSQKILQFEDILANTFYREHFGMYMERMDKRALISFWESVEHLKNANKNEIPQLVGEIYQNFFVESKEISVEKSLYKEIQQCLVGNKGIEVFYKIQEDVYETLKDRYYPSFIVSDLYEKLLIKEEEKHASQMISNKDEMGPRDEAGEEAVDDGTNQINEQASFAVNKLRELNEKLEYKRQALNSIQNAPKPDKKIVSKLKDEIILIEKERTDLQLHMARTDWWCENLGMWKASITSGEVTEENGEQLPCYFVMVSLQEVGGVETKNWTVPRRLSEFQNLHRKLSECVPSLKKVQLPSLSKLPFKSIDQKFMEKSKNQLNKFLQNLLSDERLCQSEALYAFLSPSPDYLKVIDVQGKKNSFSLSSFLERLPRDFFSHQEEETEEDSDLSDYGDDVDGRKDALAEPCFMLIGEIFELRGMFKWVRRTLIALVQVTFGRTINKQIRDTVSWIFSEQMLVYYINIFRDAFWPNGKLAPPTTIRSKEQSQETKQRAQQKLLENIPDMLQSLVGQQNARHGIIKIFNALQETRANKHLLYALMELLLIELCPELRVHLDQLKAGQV
B5: Mothers against decapentaplegic homolog 4 (Homo sapiens), Q13485 (parent)
chain: B1 chain
partner: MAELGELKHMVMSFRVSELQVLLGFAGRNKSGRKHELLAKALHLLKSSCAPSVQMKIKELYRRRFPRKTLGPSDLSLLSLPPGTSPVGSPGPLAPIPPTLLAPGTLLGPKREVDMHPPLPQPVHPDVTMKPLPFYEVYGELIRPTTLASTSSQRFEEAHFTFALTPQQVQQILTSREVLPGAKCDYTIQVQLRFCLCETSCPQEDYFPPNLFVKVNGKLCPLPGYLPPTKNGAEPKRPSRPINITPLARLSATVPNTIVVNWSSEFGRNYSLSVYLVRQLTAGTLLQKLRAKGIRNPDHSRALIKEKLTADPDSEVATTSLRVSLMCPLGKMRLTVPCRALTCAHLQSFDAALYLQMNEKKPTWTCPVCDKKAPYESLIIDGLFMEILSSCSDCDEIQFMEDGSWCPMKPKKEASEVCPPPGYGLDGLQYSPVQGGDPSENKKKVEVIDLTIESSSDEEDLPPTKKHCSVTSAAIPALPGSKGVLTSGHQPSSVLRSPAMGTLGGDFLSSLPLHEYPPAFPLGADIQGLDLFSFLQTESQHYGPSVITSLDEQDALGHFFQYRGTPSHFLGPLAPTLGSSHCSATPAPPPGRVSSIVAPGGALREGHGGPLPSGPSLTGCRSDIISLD

Variants of: B1
Conditions: with nos3_human NOS3, P29474

effect of a mutation on the interaction | Variant
with no effect | G386D

Variants of: B1
Conditions: with nos3_human NOS3, P29474
Remark: another data set of the same source

effect of a mutation on the interaction | Variant
increasing interaction strength | G386D

Variants of: B1
Conditions: with nos3_human NOS3, P29474
Remark: another data set of the same source

effect of a mutation on the interaction | Variant
with no effect | R361H

Variants of: B2
Conditions: with rab25_human RAB25, P57735

effect of a mutation on the interaction | Variant
with no effect | G386D

Variants of: B3
Conditions: with nfl_human NEFL

effect of a mutation on the interaction | Variant
with no effect | G386D

Variants of: B4
Conditions: with snx25_human SNX25, Q9H3E2

effect of a mutation on the interaction | Variant
with no effect | G386D

Variants of: B4
Conditions: with snx25_human SNX25, Q9H3E2
Remark: another data set of the same source

effect of a mutation on the interaction | Variant
with no effect | R361H

Variants of: B5
Conditions: with pias3_human PIAS3, Q9Y6X2

effect of a mutation on the interaction | Variant
with no effect | G386D

Variants of: B5
Conditions: with pias3_human PIAS3, Q9Y6X2
Remark: another data set of the same source

effect of a mutation on the interaction | Variant
increasing interaction strength | G386D
